Assay results published in US20030186329A1, “Use of substrate subtraction libraries to distinguish enzyme specificities” (The Scripps Research Institute, priority 1998, published 2003).

Legend:
[1] = biological target: tissue plasminogen activator (t-PA) (human) (UniProt P00750); assay: inhibition kinetics, residual enzymatic activity
[2] = biological target: urokinase-type plasminogen activator (u-PA) (human) (UniProt P00749); assay: inhibition kinetics, residual enzymatic activity
[3] = biological target: tissue plasminogen activator (t-PA) (human) (UniProt P00750); assay: ratio of the rate constants for inhibition of t-PA and u-PA
[4] = biological target: urokinase-type plasminogen activator (u-PA) (human) (UniProt P00749); assay: ratio of the rate constants for inhibition of u-PA, wild type against variant
[5] = biological target: urokinase-type plasminogen activator (u-PA) (human) (UniProt P00749); assay: ratio of the rate constants for inhibition of u-PA and t-PA
[6] = biological target: urokinase-type plasminogen activator (u-PA) (human) (UniProt P00749); assay: inhibition kinetics, residual enzymatic activity, indirect chromogenic assay

tissue plasminogen activator (t-PA) (human), sequence (P00750 36-562 limits assumed): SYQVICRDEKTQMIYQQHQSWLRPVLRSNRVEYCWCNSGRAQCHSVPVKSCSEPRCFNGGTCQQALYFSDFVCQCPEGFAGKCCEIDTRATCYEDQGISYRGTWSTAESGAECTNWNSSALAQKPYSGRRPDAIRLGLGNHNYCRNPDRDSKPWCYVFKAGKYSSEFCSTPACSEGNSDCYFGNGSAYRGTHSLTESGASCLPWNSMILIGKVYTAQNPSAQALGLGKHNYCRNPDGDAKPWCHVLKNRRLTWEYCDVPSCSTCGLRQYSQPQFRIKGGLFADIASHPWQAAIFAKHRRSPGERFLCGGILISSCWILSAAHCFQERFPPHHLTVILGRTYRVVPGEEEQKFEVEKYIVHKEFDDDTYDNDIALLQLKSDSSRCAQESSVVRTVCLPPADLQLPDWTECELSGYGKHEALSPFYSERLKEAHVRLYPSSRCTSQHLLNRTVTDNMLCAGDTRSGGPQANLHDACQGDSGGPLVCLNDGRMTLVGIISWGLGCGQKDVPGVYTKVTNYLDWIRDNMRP

Row | second order rate constant for inhibition [1] [M⁻¹ s⁻¹] | second order rate constant for inhibition [2] [M⁻¹ s⁻¹] | t-PA/u-PA Selectivity [3] | fold reduction of activity against wild type PAI-1 [4] [fold] | fold specificity toward u-PA over t-PA [5] [fold] | second order rate constant for inhibition [6] [M⁻¹ s⁻¹] | Substance
1 | 1.4e+06 | 100000 | 14 | 190 | – | – | PAI-1/P3R (from UniProt P05121 24-402)
2 | 1.4e+06 | 29000 | 48 | – | – | – | PAI-1/P4Q, P3R (from UniProt P05121 24-402)
3 | – | – | – | – | 11.9 | 1.9e+07 | wild type plasminogen activator inhibitor type 1 (PAI-1) (from UniProt P05121 24-402) (other; other documents disagree on this pair)
